B1: Human plasmin (protein)
chain: KVYLSECKTGNGKNYRGTMSKTKNGITCQKWSSTSPHRPRFSPATHPSEGLEENYCRNPDNDPQGPWCYTTDPEKRYDYCDILECEEECMHCSGENYDGKISKTMSGLECQAWDSQSPHAHGYIPSKFPNKNLKKNYCRNPDRELRPWCFTTDPNKRWELCDIPRCTTPPPSSGPTYQCLKGTGENYRGNVAVTVSGHTCQHWSAQTPHTHNRTPENFPCKNLDENYCRNPDGKRAPWCHTTNSQVRWEYCKIPSCDSSPVSTEQLAPTAPPELTPVVQDCYHGDGQSYRGTSSTTTTGKKCQSWSSMTPHRHQKTPENYPNAGLTMNYCRNPDADKGPWCFTTDPSVRWEYCNLKKCSGTEASVVAPPPVVLLPDVETPSEEDCMFGNGKGYRGKRATTVTGTPCQDWAAQEPHRHSIFTPETNPRAGLEKNYCRNPDGDVGGPWCYTTNPRKLYDYCDVPQCAAPSFDCGKPQVEPKKCPGRVVGGCVAHPHSWPWQVSLRTRFGMHFCGGTLISPEWVLTAAHCLEKSPRPSSYKVILGAHQEVNLEPHVQEIEVSRLFLEPTRKDIALLKLSSPAVITDKVIPACLPSPNYVVADRTECFITGWGETQGTFGAGLLKEAQLPVIENKVCNRYEFLNGRVQSTELCAGHLAGGTDSCQGDSGGPLVCFEKDKYILQGVTSWGLGCARPNKPGVYVRVSRFVTWIEGVMRNN
B2: Human tPA (protein)
chain: SYQVICRDEKTQMIYQQHQSWLRPVLRSNRVEYCWCNSGRAQCHSVPVKSCSEPRCFNGGTCQQALYFSDFVCQCPEGFAGKCCEIDTRATCYEDQGISYRGTWSTAESGAECTNWNSSALAQKPYSGRRPDAIRLGLGNHNYCRNPDRDSKPWCYVFKAGKYSSEFCSTPACSEGNSDCYFGNGSAYRGTHSLTESGASCLPWNSMILIGKVYTAQNPSAQALGLGKHNYCRNPDGDAKPWCHVLKNRRLTWEYCDVPSCSTCGLRQYSQPQFRIKGGLFADIASHPWQAAIFAKHRRSPGERFLCGGILISSCWILSAAHCFQERFPPHHLTVILGRTYRVVPGEEEQKFEVEKYIVHKEFDDDTYDNDIALLQLKSDSSRCAQESSVVRTVCLPPADLQLPDWTECELSGYGKHEALSPFYSERLKEAHVRLYPSSRCTSQHLLNRTVTDNMLCAGDTRSGGPQANLHDACQGDSGGPLVCLNDGRMTLVGIISWGLGCGQKDVPGVYTKVTNYLDWIRDNMRP
B3: Human HTRA2 (protein)
chain: AVPSPPPASPRSQYNFIADVVEKTAPAVVYIEILDRHPFLGREVPISNGSGFVVAADGLIVTNAHVVADRRRVRVRLLSGDTYEAVVTAVDPVADIATLRIQTKEPLPTLPLGRSADVRQGEFVVAMGSPFALQNTITSGIVSSAQRPARDLGLPQTNVEYIQTDAAIDFGNSGGPLVNLDGEVIGVNTMKVTAGISFAIPSDRLREFLHRGEKKNSSSGISGSQRRYIGVMMLTLSPSILAELQLREPSFPDVQHGVLIHKVILGSPAHRAGLRPGDVILAIGEQMVQNAEDVYEAVRTQSQLAVQIRRGRETLTLYVTPEVTE
B4: Human chymase (protein)
chain: IIGGTECKPHSRPYMAYLEIVTSNGPSKFCGGFLIRRNFVLTAAHCAGRSITVTLGAHNITEEEDTWQKLEVIKQFRHPKYNTSTLHHDIMLLKLKEKASLTLAVGTLPFPSQFNFVPPGRMCRVAGWGRTGVLKPGSDTLQEVKLRLMDPQACSHFRDFDHNLQLCVGNPRKTKSAFKGDSGGPLLCAGVAQGIVSYGRSDAKPPAVFTRISHYRPWINQILQAN
B5: Human matriptase (protein)
chain: VVGGTDADEGEWPWQVSLHALGQGHICGASLISPNWLVSAAHCYIDDRGFRYSDPTQWTAFLGLHDQSQRSAPGVQERRLKRIISHPFFNDFTFDYDIALLELEKPAEYSSMVRPICLPDASHVFPAGKAIWVTGWGHTQYGGTGALILQKGEIRVINQTTCENLLPQQITPRMMCVGFLSGGVDSCQGDSGGPLSSVEADGRIFQAGVVSWGDGCAQRNKPGVYTRLPLFRDWIKENTGV

These results are taken from patent US20200377573.

This data set concerns the target HTRA1-inhibiting peptides (Example 3-2 and 3-3, members not named).
Turning to B1, the “protease activity (decomposition of a peptide substrate)” value (“protease activity” below) is “did not suppress the protease activity of any of the proteases at a final inhibitor concentration of 1 micro M”. Take B2: the “protease activity” value is “did not suppress the protease activity of any of the proteases at a final inhibitor concentration of 1 micro M”.

For the protein B3, the “protease activity” value is “did not suppress the protease activity of any of the proteases at a final inhibitor concentration of 1 micro M”. The result for B4 reads “did not suppress the protease activity of any of the proteases at a final inhibitor concentration of 1 micro M”. As to B5, the “protease activity” value is “did not suppress the protease activity of any of the proteases at a final inhibitor concentration of 1 micro M”.
